Values of other authors in patent publication US20230146896A1, “COMPOSITION AND METHOD FOR TREATING ALZHEIMER'S DISEASE” (Eisai R&D Management Co., Ltd., priority 2016, published 2023).

Conditions: previous studies, intravenous infusion; typically occurred on the first infusion

B1: BAN2401: humanized IgG1 monoclonal version of mAb158; heavy chain variable SEQ ID NO:1, light chain variable SEQ ID NO:2 (antibody, V domains shown)
VH: EVQLVESGGGLVQPGGSLRLSCSASGFTFSSFGMHWVRQAPGKGLEWVAYISSGSSTIYYGDTVKGRFTISRDNAKNSLFLQMSSLRAEDTAVYYCAREGGYYYGRSYYTMDYWGQGTTVTVSS
VL: DVVMTQSPLSLPVTPGAPASISCRSSQSIVHSNGNTYLEWYLQKPGQSPKLLIYKVSNRFSGVPDRFSGSGSGTDFTLRISRVEAEDVGIYYCFQGSHVPPTFGPGTKLEIK
adverse events (infusion reactions): infusion reactions were common AEs
